Measurements published in paper PMC9482650, “Quantitative fragmentomics allow affinity mapping of interactomes” (Nature Communications, 2022).

B1: JAG1, P78504 (peptide)
chain: QSLNRMEYIV

Each binder was assayed against MAGI1_2, Q96QZ7 (assay: holdup assay). Settings: plain residues with an end cap or a label only (N-terminal biotin on a linker: ado-ado).
MAGI1_2, Q96QZ7, sequence (Q96QZ7 456-580): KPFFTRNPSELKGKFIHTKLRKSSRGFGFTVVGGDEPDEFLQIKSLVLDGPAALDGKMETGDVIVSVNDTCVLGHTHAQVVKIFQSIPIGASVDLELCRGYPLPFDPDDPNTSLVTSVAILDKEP
Design: key: below the threshold = too weak to quantify, mostly under pKd 3.1 to 4
With B1 the pKd was “below the threshold”.

What follows are binders tested against MAGI3_2, Q5TCQ9 (assay: holdup assay). Settings: plain residues with an end cap or a label only (N-terminal biotin on a linker: ado-ado).
MAGI3_2, Q5TCQ9, sequence (Q5TCQ9 398-503): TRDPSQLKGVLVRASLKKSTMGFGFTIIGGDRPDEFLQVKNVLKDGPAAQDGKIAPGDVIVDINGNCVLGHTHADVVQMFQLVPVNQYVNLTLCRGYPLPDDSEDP
Design: key: below the threshold = too weak to quantify, mostly under pKd 3.1 to 4
Binder B1 has a pKd of 4.73.

The binders below were run against LDB3, O75112 (assay: holdup assay). Settings: plain residues with an end cap or a label only (N-terminal biotin on a linker: ado-ado).
LDB3, O75112, sequence (O75112 1-94): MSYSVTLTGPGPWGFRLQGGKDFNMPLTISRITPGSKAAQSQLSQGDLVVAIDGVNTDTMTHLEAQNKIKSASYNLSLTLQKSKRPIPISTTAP
Design: key: below the threshold = too weak to quantify, mostly under pKd 3.1 to 4
In the case of B1, the pKd is reported as “below the threshold”.

What follows are binders tested against AHNAK1, Q09666 (assay: holdup assay). Settings: plain residues with an end cap or a label only (N-terminal biotin on a linker: ado-ado).
AHNAK1, Q09666, sequence (Q09666 4-100): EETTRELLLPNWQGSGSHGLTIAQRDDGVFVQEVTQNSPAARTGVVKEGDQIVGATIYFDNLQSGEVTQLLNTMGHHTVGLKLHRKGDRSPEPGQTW
Design: key: below the threshold = too weak to quantify, mostly under pKd 3.1 to 4
In the case of B1, the pKd is reported as “below the threshold”.

The binders below were run against T1, DLG3_1, Q92796 (assay: holdup assay). Settings: plain residues with an end cap or a label only (N-terminal biotin on a linker: ado-ado).
T1 sequence (Q92796 125-227, limits assumed, looked up): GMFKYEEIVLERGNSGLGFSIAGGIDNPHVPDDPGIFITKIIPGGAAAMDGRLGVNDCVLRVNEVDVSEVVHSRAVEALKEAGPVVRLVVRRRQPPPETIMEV
Design: key: below the threshold = too weak to quantify, mostly under pKd 3.1 to 4
In the case of B1, the pKd is reported as “below the threshold”.

What follows are binders tested against T2, RADIL, Q96JH8 (assay: holdup assay). Settings: plain residues with an end cap or a label only (N-terminal biotin on a linker: ado-ado).
T2 sequence (Q96JH8 971-1071, limits assumed, looked up): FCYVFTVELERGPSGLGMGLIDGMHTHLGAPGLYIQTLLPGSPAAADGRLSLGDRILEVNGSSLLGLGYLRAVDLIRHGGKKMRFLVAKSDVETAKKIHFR
Design: key: below the threshold = too weak to quantify, mostly under pKd 3.1 to 4
Binder B1 has a pKd of 4.82.

What follows are binders tested against SCRIB_2, Q14160 (assay: holdup assay). Settings: plain residues with an end cap or a label only (N-terminal biotin on a linker: ado-ado).
SCRIB_2, Q14160, sequence (Q14160 857-960): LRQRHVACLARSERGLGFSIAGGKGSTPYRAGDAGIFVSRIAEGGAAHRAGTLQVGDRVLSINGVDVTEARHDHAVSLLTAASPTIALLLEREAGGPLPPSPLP
Design: key: below the threshold = too weak to quantify, mostly under pKd 3.1 to 4
In the case of B1, the pKd is reported as “below the threshold”.

What follows are binders tested against IL16_1, Q14005 (assay: holdup assay). Settings: plain residues with an end cap or a label only (N-terminal biotin on a linker: ado-ado).
IL16_1, Q14005, sequence (Q14005 210-306): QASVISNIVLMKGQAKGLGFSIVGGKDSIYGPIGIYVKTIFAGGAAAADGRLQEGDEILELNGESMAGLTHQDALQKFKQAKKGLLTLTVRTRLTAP
Design: key: below the threshold = too weak to quantify, mostly under pKd 3.1 to 4
B1 showed a pKd of 3.91.

What follows are binders tested against T3, SHANK1, Q9Y566 (assay: holdup assay). Settings: plain residues with an end cap or a label only (N-terminal biotin on a linker: ado-ado).
T3 sequence (Q9Y566 658-767, limits assumed, looked up): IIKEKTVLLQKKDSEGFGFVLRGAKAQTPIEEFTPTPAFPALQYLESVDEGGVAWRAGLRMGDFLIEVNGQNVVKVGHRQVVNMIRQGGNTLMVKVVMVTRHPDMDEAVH
Design: key: below the threshold = too weak to quantify, mostly under pKd 3.1 to 4
For B1, the pKd was “below the threshold”.

The binders below were run against DLG1_1, Q12959 (assay: holdup assay). Settings: plain residues with an end cap or a label only (N-terminal biotin on a linker: ado-ado).
Design: key: below the threshold = too weak to quantify, mostly under pKd 3.1 to 4
For B1, the pKd was “below the threshold”.

These binders were tested against TJP1_2, Q07157 (assay: holdup assay). Settings: plain residues with an end cap or a label only (N-terminal biotin on a linker: ado-ado).
TJP1_2, Q07157, sequence (Q07157 181-274): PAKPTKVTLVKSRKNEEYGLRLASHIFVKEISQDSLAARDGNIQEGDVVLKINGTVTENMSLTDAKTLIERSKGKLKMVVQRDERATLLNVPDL
Design: key: below the threshold = too weak to quantify, mostly under pKd 3.1 to 4
With B1 the pKd was “below the threshold”.

Each binder was assayed against T4, LIN7A, O14910 (assay: holdup assay). Settings: plain residues with an end cap or a label only (N-terminal biotin on a linker: ado-ado).
T4 sequence (O14910 103-200, limits assumed, looked up): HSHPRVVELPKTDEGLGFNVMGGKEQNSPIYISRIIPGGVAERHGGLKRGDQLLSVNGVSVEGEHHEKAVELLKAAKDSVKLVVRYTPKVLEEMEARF
Design: key: below the threshold = too weak to quantify, mostly under pKd 3.1 to 4
In the case of B1, the pKd is reported as “below the threshold”.

The binders below were run against T5, DLG3_2, Q92796 (assay: holdup assay). Settings: plain residues with an end cap or a label only (N-terminal biotin on a linker: ado-ado).
T5 sequence (Q92796 221-321, limits assumed, looked up): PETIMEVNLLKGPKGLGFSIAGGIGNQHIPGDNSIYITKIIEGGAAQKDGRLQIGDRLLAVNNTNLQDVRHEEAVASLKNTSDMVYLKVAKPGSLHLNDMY
Design: key: below the threshold = too weak to quantify, mostly under pKd 3.1 to 4
For B1, the pKd was 4.45.

These binders were tested against SCRIB_3, Q14160 (assay: holdup assay). Settings: plain residues with an end cap or a label only (N-terminal biotin on a linker: ado-ado).
SCRIB_3, Q14160, sequence (Q14160 999-1103): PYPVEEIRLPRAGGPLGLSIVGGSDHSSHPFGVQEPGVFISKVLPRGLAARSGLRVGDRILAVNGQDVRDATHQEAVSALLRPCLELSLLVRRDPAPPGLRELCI
Design: key: below the threshold = too weak to quantify, mostly under pKd 3.1 to 4
In the case of B1, the pKd is reported as “below the threshold”.

What follows are binders tested against T6, GRIP1_5, Q9Y3R0 (assay: holdup assay). Settings: plain residues with an end cap or a label only (N-terminal biotin on a linker: ado-ado).
T6 sequence (Q9Y3R0 568-668, limits assumed, looked up): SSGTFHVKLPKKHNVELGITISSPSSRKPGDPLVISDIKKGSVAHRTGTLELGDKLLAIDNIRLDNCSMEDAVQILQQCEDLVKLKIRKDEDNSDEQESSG
Design: key: below the threshold = too weak to quantify, mostly under pKd 3.1 to 4
For B1, the pKd was “below the threshold”.

What follows are binders tested against DLG1_3, Q12959 (assay: holdup assay). Settings: plain residues with an end cap or a label only (N-terminal biotin on a linker: ado-ado).
Design: key: below the threshold = too weak to quantify, mostly under pKd 3.1 to 4
B1 was tested, and the pKd was “below the threshold”.

Each binder was assayed against T7, MPP6, Q9NZW5 (assay: holdup assay). Settings: plain residues with an end cap or a label only (N-terminal biotin on a linker: ado-ado).
T7 sequence (Q9NZW5 125-219, limits assumed, looked up): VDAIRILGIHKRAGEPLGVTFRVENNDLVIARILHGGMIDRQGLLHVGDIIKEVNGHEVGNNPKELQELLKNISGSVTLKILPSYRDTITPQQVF
Design: key: below the threshold = too weak to quantify, mostly under pKd 3.1 to 4
B1 was tested, and the pKd was 3.9.

What follows are binders tested against TJP2_1, Q9UDY2 (assay: holdup assay). Settings: plain residues with an end cap or a label only (N-terminal biotin on a linker: ado-ado).
TJP2_1, Q9UDY2, sequence (Q9UDY2 24-128): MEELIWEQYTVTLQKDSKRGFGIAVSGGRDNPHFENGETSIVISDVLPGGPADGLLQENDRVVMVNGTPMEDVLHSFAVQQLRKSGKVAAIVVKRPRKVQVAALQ
Design: key: below the threshold = too weak to quantify, mostly under pKd 3.1 to 4
B1 was tested, and the pKd was “below the threshold”.

What follows are binders tested against GRASP, Q7Z6J2 (assay: holdup assay). Settings: plain residues with an end cap or a label only (N-terminal biotin on a linker: ado-ado).
GRASP, Q7Z6J2, sequence (Q7Z6J2 96-193): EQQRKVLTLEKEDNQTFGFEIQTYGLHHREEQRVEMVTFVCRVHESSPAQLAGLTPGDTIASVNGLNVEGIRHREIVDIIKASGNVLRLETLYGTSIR
Design: key: below the threshold = too weak to quantify, mostly under pKd 3.1 to 4
For B1, the pKd was “below the threshold”.

These binders were tested against FRMPD3, Q5JV73 (assay: holdup assay). Settings: plain residues with an end cap or a label only (N-terminal biotin on a linker: ado-ado).
FRMPD3, Q5JV73, sequence (Q5JV73 12-100): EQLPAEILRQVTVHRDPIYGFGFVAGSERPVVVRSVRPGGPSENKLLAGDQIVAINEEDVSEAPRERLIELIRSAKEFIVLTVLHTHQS
Design: key: below the threshold = too weak to quantify, mostly under pKd 3.1 to 4
For B1, the pKd was “below the threshold”.

These binders were tested against T8, SIPA1L2, Q9P2F8 (assay: holdup assay). Settings: plain residues with an end cap or a label only (N-terminal biotin on a linker: ado-ado).
T8 sequence (Q9P2F8 945-1036, limits assumed, looked up): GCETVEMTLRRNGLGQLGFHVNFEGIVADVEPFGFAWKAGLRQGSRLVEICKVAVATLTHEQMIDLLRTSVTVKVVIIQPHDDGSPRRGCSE
Design: key: below the threshold = too weak to quantify, mostly under pKd 3.1 to 4
With B1 the pKd was “below the threshold”.

What follows are binders tested against DLG4_3, P78352 (assay: holdup assay). Settings: plain residues with an end cap or a label only (N-terminal biotin on a linker: ado-ado).
DLG4_3, P78352, sequence (P78352 306-403): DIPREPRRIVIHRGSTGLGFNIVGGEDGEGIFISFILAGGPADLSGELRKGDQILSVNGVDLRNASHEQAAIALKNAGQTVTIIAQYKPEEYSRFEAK
Design: key: below the threshold = too weak to quantify, mostly under pKd 3.1 to 4
For B1, the pKd was “below the threshold”.

The binders below were run against GORASP2, Q9H8Y8 (assay: holdup assay). Settings: plain residues with an end cap or a label only (N-terminal biotin on a linker: ado-ado).
Design: key: below the threshold = too weak to quantify, mostly under pKd 3.1 to 4
B1 showed a pKd of 5.14.

These binders were tested against PDLIM1, O00151 (assay: holdup assay). Settings: plain residues with an end cap or a label only (N-terminal biotin on a linker: ado-ado).
PDLIM1, O00151, sequence (O00151 1-87): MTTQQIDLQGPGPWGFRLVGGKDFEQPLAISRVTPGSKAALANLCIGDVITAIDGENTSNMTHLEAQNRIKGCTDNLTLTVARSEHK
Design: key: below the threshold = too weak to quantify, mostly under pKd 3.1 to 4
With B1 the pKd was “below the threshold”.

Each binder was assayed against GOPC, Q9HD26 (assay: holdup assay). Settings: plain residues with an end cap or a label only (N-terminal biotin on a linker: ado-ado).
Design: key: below the threshold = too weak to quantify, mostly under pKd 3.1 to 4
With B1 the pKd was “below the threshold”.

What follows are binders tested against DLG4_2, P78352 (assay: holdup assay). Settings: plain residues with an end cap or a label only (N-terminal biotin on a linker: ado-ado).
DLG4_2, P78352, sequence (P78352 155-259): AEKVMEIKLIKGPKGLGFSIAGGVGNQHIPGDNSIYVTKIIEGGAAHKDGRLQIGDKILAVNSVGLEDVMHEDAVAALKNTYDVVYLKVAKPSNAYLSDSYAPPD
Design: key: below the threshold = too weak to quantify, mostly under pKd 3.1 to 4
For B1, the pKd was 3.78.

The binders below were run against MAGI2_2, Q86UL8 (assay: holdup assay). Settings: plain residues with an end cap or a label only (N-terminal biotin on a linker: ado-ado).
MAGI2_2, Q86UL8, sequence (Q86UL8 410-522): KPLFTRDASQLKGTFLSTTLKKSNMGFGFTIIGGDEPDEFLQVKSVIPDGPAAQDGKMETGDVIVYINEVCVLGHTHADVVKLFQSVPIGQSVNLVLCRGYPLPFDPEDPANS
Design: key: below the threshold = too weak to quantify, mostly under pKd 3.1 to 4
In the case of B1, the pKd is reported as 3.91.

Each binder was assayed against T9, ARHGEF11, O15085 (assay: holdup assay). Settings: plain residues with an end cap or a label only (N-terminal biotin on a linker: ado-ado).
T9 sequence (O15085 42-136, limits assumed, looked up): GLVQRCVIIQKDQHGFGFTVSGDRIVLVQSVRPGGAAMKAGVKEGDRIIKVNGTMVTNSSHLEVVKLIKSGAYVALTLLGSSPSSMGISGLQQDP
Design: key: below the threshold = too weak to quantify, mostly under pKd 3.1 to 4
With B1 the pKd was “below the threshold”.
